Reference: article PMC5352144, “Deacetylation of sialic acid by esterases potentiates pneumococcal neuraminidase activity for mucin utilization, colonization and virulence” (PLoS Pathogens, 2017)

Tested on: CC(=O)Oc1ccc([N+](=O)[O-])cc1
Assay: purified protein
Details: pH 7.5

Substance: Axe (Streptococcus pneumoniae D39)
- Km: 4.4 ± 0.58 mM
